# Measured values: patent US20120276075
# B1: recombinant Aspergillus fumigatus sedolisin SedB (tripeptidyl-peptidase), produced in Pichia pastoris (protein)
# chain: TSTCDQVITPQCLKDLYNIGDYKADPNGGSKVAFASFLEEYARYDDLAKFEEKLAPYAIGQNFSVIQYNGGLNDQNSASDSGEANLDLQYIVGVSSPIPVTEFSTGGRGLLIPDLSQPDPNDNSNEPYLEFLQNVLKMDQDKLPQVISTSYGEDEQTIPEKYARSVCNLYAQLGSRGVSVIFSSGDSGVGAACLTNDGTNRTHFPPQFPAACPWVTSVGGTTKTQPEEAVYFSSGGFSDLWERPSWQDSAVKRYLKKLGPRYKGLYNPKGRAFPDVAAQAENYAVFDKGVLHQFDGTSCSAPAFSAIVALLNDARLRAHKPVMGFLNPWLYSKASKGFNDIVKGGSKGCDGRNRFGGTPNGSPVVPYASWNATDGWDPATGLGTPDFGKLLSLAMRR
# B2: recombinant Aspergillus fumigatus prolyl protease AfuS28, His6-tagged, produced in Pichia pastoris (protein)
# chain: LMPRAPLIPAMKAKVALPSGNATFEQYIDHNNPGLGTFPQRYWYNPEFWAGPGSPVLLFTPGESDAADYDGFLTNKTIVGRFAEEIGGAVILLEHRYWGASSPYPELTTETLQYLTLEQSIADLVHFAKTVNLPFDEIHSSNADNAPWVMTGGSYSGALAAWTASIAPGTFWAYHASSAPVQAIYDFWQYFVPVVEGMPKNCSKDLNRVVEYIDHVYESGDIERQQEIKEMFGLGALKHFDDFAAAITNGPWLWQDMNFVSGYSRFYKFCDAVENVTPGAKSVPGPEGVGLEKALQGYASWFNSTYLPGSCAEYKYWTDKDAVDCYDSYETNSPIYTDKAVNNTSNKQWTWFLCNEPLFYWQDGAPKDESTIVSRIVSAEYWQRQCHAYFPEVNGYTFGSANGKTAEDVNKWTKGWDLTNTTRLIWANGQFDPWRDASVSSKTRPGGPLQSTEQAPVHVIPGGFHCSDQWLVYGEANAGVQKVIDEEVAQIKAWVAEYPKYRKPHHHHHH
# Columns and labels:
# [1] = biological target: NPY 1-36 (neuropeptide Y)
# Sequence of BSA, P02769 (P02769 25-607): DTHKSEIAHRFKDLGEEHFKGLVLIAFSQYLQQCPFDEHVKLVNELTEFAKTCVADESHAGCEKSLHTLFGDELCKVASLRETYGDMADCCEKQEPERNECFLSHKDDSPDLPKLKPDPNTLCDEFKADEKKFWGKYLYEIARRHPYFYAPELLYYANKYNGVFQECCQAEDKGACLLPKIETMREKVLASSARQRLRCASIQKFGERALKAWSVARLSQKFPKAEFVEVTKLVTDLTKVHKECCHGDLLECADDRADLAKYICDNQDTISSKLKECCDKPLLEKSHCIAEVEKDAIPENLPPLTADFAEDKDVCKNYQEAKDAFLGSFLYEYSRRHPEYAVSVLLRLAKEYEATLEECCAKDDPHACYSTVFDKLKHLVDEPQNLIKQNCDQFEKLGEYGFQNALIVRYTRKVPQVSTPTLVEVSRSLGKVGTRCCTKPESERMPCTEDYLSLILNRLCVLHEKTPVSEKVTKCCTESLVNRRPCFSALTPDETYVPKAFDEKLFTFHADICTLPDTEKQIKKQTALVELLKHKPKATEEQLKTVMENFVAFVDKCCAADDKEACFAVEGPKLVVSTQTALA
Protein,"digestion of the peptide at acidic pH, mass spectrometry (NPY 3-36)","digestion of the peptide by AfuS28 and SedB added together, acidic pH, mass spectrometry (NPY 3-36)","degradation of the peptide by AfuS28 + SedB together, 2 hours at 37 C, pH 4 and pH 8, mass spectrometry (33-mer of gliadin)","digestion of the peptide at acidic pH, mass spectrometry [1]","proteolysis of a full length protein substrate (BSA, P02769)","degradation of the peptide, products detected by mass spectrometry (bradykinin (…))",endoproteolytic activity (release of label from resorufin-labeled casein) (resorufin-labeled casein),"degradation of the peptide, products detected by mass spectrometry (NPY 3-36)","full length NPY3-36 remaining after 15 min with 1.8 mU of enzyme at 37 C (degradation kinetics, mass spectrometry) (NPY 3-36)","degradation of the peptide, products detected by mass spectrometry [1]"
B1,NPY3-36 was not digested by recombinant SedB,"AfuS28 and SedB added together degraded NPY3-36 in Y, di- and tri-peptides","The enzyme composition AfuS28+SedB provides complete degradation of gliadin into several di-, tri-, tetra- and pentapeptides","this enzyme removed tripeptides (YPS, KPD and NPG) from the N-terminus of NPY1-36 until position 10",–,–,–,–,–,–
B2,–,"AfuS28 and SedB added together degraded NPY3-36 in Y, di- and tri-peptides","The enzyme composition AfuS28+SedB provides complete degradation of gliadin into several di-, tri-, tetra- and pentapeptides",–,AfuS28 does not attack full length protein substrates such as resorufin-labeled casein and BSA,"Digestion of bradykinin (RPPGFSPFR, SEQ ID NO:28) resulted in RPP, FR, GFSPFR (SEQ ID NO:35) and PGFSPFR (SEQ ID NO:36) fragments",Recombinant AfuS28 showed no detectable proteolytic activity using casein resorufin-labeled as a substrate,"AfuS28 was also found to degrade NPY1-36 and NPY3-36, cleaving after proline residues",Less than 10% of full length NPY3-36 was still present after 15 min incubation,"AfuS28 was also found to degrade NPY1-36 and NPY3-36, cleaving after proline residues"
